B1: wild-type Tie2 ectodomain-Fc [human] / Angiopoietin-2 [not stated] (parent complex)
chain 1: AMDLILINSLPLVSDAETSLTCIASGWRPHEPITIGRDFEALMNQHQDPLEVTQDVTREWAKKVVWKREKASKINGAYFCEGRVRGEAIRIRTMKMRQQASFLPATLTMTVDKGDNVNISFKKVLIKEEDAVIYKNGSFIHSVPRHEVPDILEVHLPHAQPQDAGVYSARYIGGNLFTSAFTRLIVRRCEAQKWGPECNHLCTACMNNGVCHEDTGECICPPGFMGRTCEKACELHTFGRTCKERCSGQEGCKSYVFCLPDPYGCSCATGWKGLQCNEACHPGFYGPDCKLRCSCNNGEMCDRFQGCLCSPGWQGLQCEREGIQRMTPKIVDLPDHIEVNSGKFNPICKASGWPLPTNEEMTLVKPDGTVLHPKDFNHTDHFSVAIFTIHRILPPDSGVWVCSVNTVAGMVEKPFNISVK
chain 2: YNNFRKSMDSIGKKQYQVQHGSCSYTFLLPEMDNCRSSSSPYVSNAVQRDAPLEYDDSVQRLQVLENIMENNTQWLMKLENYIQDNMKKEMVEIQQNAVQNQTAVMIEIGTNLLNQTAEQTRKLTDVEAQVLNQTTRLELQLLEHSLSTNKLEKQILDQTSEINKLQDKNSFLEKKVLAMEDKHIIQLQSIKEEKDQLQVLVSKQNSIIEELEKKIVTATVNNSVLQKQQHDLMETVNNLLTMMSTSNSAKDPTVAKEEQISFRDCAEVFKSGHTTNGIYTLTFPNSTEEIKAYCDMEAGGGGWTIIQRREDGSVDFQRTWKEYKVGFGNPSGEYWLGNEFVSQLTNQQRYVLKIHLKDWEGNEAYSLYEHFYLSSEELNYRIHLKGLTGTAGKISSISQPGNDFSTKDGDNDKCICKCSQMLTGGWWFDACGPSNLNGMYYPQRQNTNKFNGIKWYYWKGSGYSLKATTMMIRPADF
B2: wild-type Tie2 ectodomain-Fc [human] / Angiopoietin-1 [not stated] (parent complex)
chain 1: B1 chain 1
chain 2: HIGCSNQRRSPENSGRRYNRIQHGQCAYTFILPEHDGNCRESTTDQYNTNALQRDAPHVEPDFSSQKLQHLEHVMENYTQWLQKLENYIVENMKSEMAQIQQNAVQNHTATMLEIGTSLLSQTAEQTRKLTDVETQVLNQTSRLEIQLLENSLSTYKLEKQLLQQTNEILKIHEKNSLLEHKILEMEGKHKEELDTLKEEKENLQGLVTRQTYIIQELEKQLNRATTNNSVLQKQQLELMDTVHNLVNLCTKEGVLLKGGKREEEKPFRDCADVYQAGFNKSGIYTIYINNMPEPKKVFCNMDVNGGGWTVIQHREDGSLDFQRGWKEYKMGFGNPSGEYWLGNEFIFAITSQRQYMLRIELMDWEGNRAYSQYDRFHIGNEKQNYRLYLKGHTGTAGKQSSLILHGADFSTKDADNDNCMCKCALMLTGGWWFDACGPSNLNGMFYTAGQNHGKLNGIKWHYFKGPSYSLRSTTMMIRPLDF

In one assay the parent is B1. Put plainly: ELISA (named by the earlier reader; legend does not name the assay); mutant read at its highest concentration point, about 300 nM Tie2 ectodomain; parent value is the wild-type curve's highest concentration point, about 50 nM; parent: 1; read off a plot.
Take chain 1 AMDLILINSLPLVSDAETSLTCIASGWRPHEPITIGRDFEALMNQHQDPLEVTQDVTREWAKKVVWKREKASKINGAYFCEGRVRGEAIRIRTMKMRQQASFLPATLTMTVDKGDNVNISFKKVLIKEEDAVIYKNGSFIHSVPAAEVPDILEVHLPHAQPQDAGVYSARYIGGNLFTSAFTRLIVRRCEAQKWGPECNHLCTACMNNGVCHEDTGECICPPGFMGRTCEKACELHTFGRTCKERCSGQEGCKSYVFCLPDPYGCSCATGWKGLQCNEACHPGFYGPDCKLRCSCNNGEMCDRFQGCLCSPGWQGLQCEREGIQRMTPKIVDLPDHIEVNSGKFNPICKASGWPLPTNEEMTLVKPDGTVLHPKDFNHTDHFSVAIFTIHRILPPDSGVWVCSVNTVAGMVEKPFNISVK [chain 1 R145A, chain 1 H146A]: the response was about 1 AU.

Variants of B1 are the subject of a further assay. The assay can be described thus: ELISA (named by the earlier reader; legend does not name the assay); mutant read at its highest concentration point, about 300 nM Tie2 ectodomain; parent value is the wild-type curve's highest concentration point, about 50 nM; parent: 0.9; read off a plot. In general terms: An ELISA detects its analyte on a solid surface through an enzyme-linked reagent.
Consider chain 1 AMDLILINSLPLVSDAETSLTCIASGWRPHEPITIGRDFEALMNQHQDPLEVTQDVTREWAKKVVWKREKASKINGAYFCEGRVRGEAIRIRTMKMRQQASFLPATLTMTVDKGDNVNISFKKVLIKEEDAVIYKNGSFIHSVPAAAVPDILEVHLPHAQPQDAGVYSARYIGGNLFTSAFTRLIVRRCEAQKWGPECNHLCTACMNNGVCHEDTGECICPPGFMGRTCEKACELHTFGRTCKERCSGQEGCKSYVFCLPDPYGCSCATGWKGLQCNEACHPGFYGPDCKLRCSCNNGEMCDRFQGCLCSPGWQGLQCEREGIQRMTPKIVDLPDHIEVNSGKFNPICKASGWPLPTNEEMTLVKPDGTVLHPKDFNHTDHFSVAIFTIHRILPPDSGVWVCSVNTVAGMVEKPFNISVK [chain 1 R145A, chain 1 H146A, chain 1 E147A], for which the response is about 0.58 AU.

In a further assay the parent is B2. Put plainly: ELISA (named by the earlier reader; legend does not name the assay); mutant read at its highest concentration point, about 300 nM Tie2 ectodomain; parent value is the wild-type curve's highest concentration point, about 50-100 nM; parent: …; read off a plot.
With chain 1 AMDLILINSLPLVSDAETSLTCIASGWRPHEPITIGRDFEALMNQHQDPLEVTQDVTREWAKKVVWKREKASKINGAYFCEGRVRGEAIRIRTMKMRQQASFLPATLTMTVDKGDNVNISFKKVLIKEEDAVIYKNGSFIHSVPAAAVPDILEVHLPHAQPQDAGVYSARYIGGNLFTSAFTRLIVRRCEAQKWGPECNHLCTACMNNGVCHEDTGECICPPGFMGRTCEKACELHTFGRTCKERCSGQEGCKSYVFCLPDPYGCSCATGWKGLQCNEACHPGFYGPDCKLRCSCNNGEMCDRFQGCLCSPGWQGLQCEREGIQRMTPKIVDLPDHIEVNSGKFNPICKASGWPLPTNEEMTLVKPDGTVLHPKDFNHTDHFSVAIFTIHRILPPDSGVWVCSVNTVAGMVEKPFNISVK [chain 1 R145A, chain 1 H146A, chain 1 E147A], the response is about 0.09 AU.

In the next assay the parent is B2. Put plainly: ELISA (named by the earlier reader; legend does not name the assay); mutant read at its highest concentration point, about 300 nM Tie2 ectodomain; parent value is the wild-type curve's highest concentration point, about 30-50 nM; parent: 1; read off a plot.
Consider chain 1 AMDLILINSLPLVSDAETSLTCIASGWRPHEPITIGRDFEALMNQHQDPLEVTQDVTREWAKKVVWKREKASKINGAYFCEGRVRGEAIRIRTMKMRQQASFLPATLTMTVDKGDNVNISFKKVLIKEEDAVIYKNGSFIHSVPAAEVPDILEVHLPHAQPQDAGVYSARYIGGNLFTSAFTRLIVRRCEAQKWGPECNHLCTACMNNGVCHEDTGECICPPGFMGRTCEKACELHTFGRTCKERCSGQEGCKSYVFCLPDPYGCSCATGWKGLQCNEACHPGFYGPDCKLRCSCNNGEMCDRFQGCLCSPGWQGLQCEREGIQRMTPKIVDLPDHIEVNSGKFNPICKASGWPLPTNEEMTLVKPDGTVLHPKDFNHTDHFSVAIFTIHRILPPDSGVWVCSVNTVAGMVEKPFNISVK [chain 1 R145A, chain 1 H146A], for which the response is about 0.88 AU.
